The values below are quoted from earlier work in PMC130215.

In the data set the target is LIR-1 (ILT2) (Homo sapiens) (UniProt Q8NHL6).
UniProt Q8NHL6, sequence (Q8NHL6 24-461): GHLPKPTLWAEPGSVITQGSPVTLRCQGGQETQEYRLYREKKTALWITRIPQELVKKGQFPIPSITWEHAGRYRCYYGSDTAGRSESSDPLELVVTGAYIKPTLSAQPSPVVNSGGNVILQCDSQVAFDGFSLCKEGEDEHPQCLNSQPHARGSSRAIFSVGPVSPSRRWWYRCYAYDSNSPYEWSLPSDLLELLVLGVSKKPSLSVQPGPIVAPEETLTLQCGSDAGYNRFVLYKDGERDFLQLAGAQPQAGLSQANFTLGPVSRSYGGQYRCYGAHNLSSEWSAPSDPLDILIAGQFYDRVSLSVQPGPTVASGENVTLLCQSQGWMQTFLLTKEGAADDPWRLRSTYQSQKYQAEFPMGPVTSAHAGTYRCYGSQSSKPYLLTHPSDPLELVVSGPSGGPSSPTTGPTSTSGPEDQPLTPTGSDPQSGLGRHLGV

With UL18 (from UniProt P08560), the Kd was 2 nM.

A word on the Kd: it is the concentration at which binding is half-saturated.
